Reference: IntAct's records for PubMed 11923305

Legend:
src_chick SRC [1] = biological target: src_chick SRC (UniProt P00523)
src_human SRC [2] = biological target: src_human SRC (UniProt P12931)
src_chick SRC [3] = biological target: src_chick SRC (UniProt P00523); remark: listed apart in the source
src_human SRC [4] = biological target: src_human SRC (UniProt P12931); remark: listed apart in the source

| effect of a mutation on the interaction (src_chick SRC [1]) | effect of a mutation on the interaction (src_human SRC [2]) | effect of a mutation on the interaction (src_chick SRC [3]) | effect of a mutation on the interaction (src_human SRC [4]) | Substance |
| --- | --- | --- | --- | --- |
| disrupting interaction | disrupting interaction |  |  | Receptor-type tyrosine-protein phosphatase alpha (Homo sapiens) (from UniProt P18433) S189A |
|  |  | disrupting interaction | disrupting interaction | Receptor-type tyrosine-protein phosphatase alpha (Homo sapiens) (from UniProt P18433) S204A |
